{
  "source": "patent US20200317791A1",
  "about": "(Janssen / Centocor, published 2020)",
  "key": {"A24_A*24:02 [1]": {"target": "T1, A24_A*24:02 (human, UniProt A*24:02)", "T1 construct": "on LABScreen bead; also called HLA-A*24:02 (LABScreen class I bead)", "T1 heavy chain": "not shown", "assay": "LABScreen beads"}, "CW6W56.ECO.PP.001": {"target": "CW6W56.ECO.PP.001", "assay": "SPR Biacore 8K, captured mAb; Acceptable fit", "source_text": "To further characterize the ability of the antibodies to differentiate between class I MHC molecules."}, "CW6W54.001": {"target": "CW6W54.001", "assay": "SPR Biacore 8K, captured mAb; Kinetic fit not valid"}, "CW6W55.ECO.PP.002": {"target": "CW6W55.ECO.PP.002", "assay": "SPR Biacore 8K, captured mAb; Kinetic fit not valid"}, "[2]": {"target": "T2, rhHLA-B7 stably expressed on K562 cells (K562-rhHLA-B7) (human, UniProt P01889 25-362)", "T2 construct": "also called K562-rehHLA-B7", "T2 sequence (P01889 25-362 limits assumed)": "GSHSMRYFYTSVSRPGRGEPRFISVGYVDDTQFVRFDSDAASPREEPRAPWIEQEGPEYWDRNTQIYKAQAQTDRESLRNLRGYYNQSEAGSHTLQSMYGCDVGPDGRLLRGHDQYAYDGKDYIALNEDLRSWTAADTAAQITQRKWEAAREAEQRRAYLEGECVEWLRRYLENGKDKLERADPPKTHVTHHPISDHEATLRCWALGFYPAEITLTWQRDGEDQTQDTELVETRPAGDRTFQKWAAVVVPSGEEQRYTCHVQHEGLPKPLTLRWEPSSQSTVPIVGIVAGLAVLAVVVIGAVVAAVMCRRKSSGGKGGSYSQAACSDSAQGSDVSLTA", "assay": "MSD cell binding"}, "[3]": {"target": "T3, rhHLA-Cw6 stably expressed on K562 cells (K562-rhHLA-Cw6) (human, UniProt P10321 25-366)", "T3 construct": "also called K562-HLA-Cw6", "T3 MHC heavy": "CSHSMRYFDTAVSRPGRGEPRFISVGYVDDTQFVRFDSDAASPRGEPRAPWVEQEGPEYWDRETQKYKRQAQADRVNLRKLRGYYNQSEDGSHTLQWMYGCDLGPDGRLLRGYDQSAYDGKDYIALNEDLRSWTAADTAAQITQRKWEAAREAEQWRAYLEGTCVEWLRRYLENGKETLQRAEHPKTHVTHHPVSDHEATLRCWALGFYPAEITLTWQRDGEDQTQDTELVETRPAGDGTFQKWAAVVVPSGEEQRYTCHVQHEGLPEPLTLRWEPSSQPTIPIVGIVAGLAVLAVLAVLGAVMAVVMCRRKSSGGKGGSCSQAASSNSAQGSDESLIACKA", "assay": "MSD cell binding", "procedure": "(§1) The blocking buffer was aspirated, 20 μl of prepared test antibodies were added to appropriate wells, and the plate was incubated further for 1 hour at RT. The plate was washed three times with 80 μl PBS, and then each well received 20 μl/well of a 1 μg/ml SulfoTag labeled secondary detection antibody solution. After a 1-hour incubation at RT, the plate was washed three times with 80 μl PBS, and 50 μl/well of a 1× MSD Read Buffer T (surfactant free) (MSD #R92TD-1) was added and the plate was read on an MSD Sector 600 Plate Reader."}, "[4]": {"target": "T2, rhHLA-B7 stably expressed on K562 cells …", "assay": "MSD cell binding", "remark": "listed apart in the source", "procedure": "as §1"}, "[5]": {"target": "T4, CW6W3.ECO.PP.002/.003 (rhHLA-Cw6/ARF) (human)", "T4 construct": "also called rhHLA-Cw6/ARFN; rHLA-Cw6/ARFN", "assay": "SPR ProteOn XPR36, captured mAb; valid kinetic fit;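 further: Anti-HLA-Cw6 mAbs captured at 100–200 RU, antigen flowed in PBST, 180 s association and 900 s dissociation, double-referenced sensorgrams globally fit to a 1:1 Langmuir model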", "procedure": "(§2) Anti-HLA-Cw6 mAbs were captured at ligand densities ranging from 100 to 200 response units. […] All analyses were conducted in PBST at 100 μL/min flow rate with association and dissociation times of 180 and 900 seconds, respectively. […] Analyte raw data was double referenced by subtraction of the blank surface response at “interspots” (to correct for refractive index changes and any non-specific interactions with the chip surface) and of the buffer blank response (to correct for any baseline drift resulting from mAb dissociation over time). Referenced data were globally fit to a 1:1 simple Langmuir binding model. Kinetic parameters were calculated for each mAb/antigen combination or interaction using Bio-Rad ProteOn Manager software (version 3.1.0.6) with parameter (kon, koff, Rmax) scope and type set to “Grouped” and “Fitted,” respectively."}, "CW6W32 (rhHLA-Cw6/TRAT)": {"target": "T5, CW6W32 (rhHLA-Cw6/TRAT) (human)", "T5 construct": "also called CW6W32.009; rHLA-Cw6/TRAT", "assay": "SPR ProteOn XPR36, captured mAb; valid kinetic fit", "procedure": "as §2"}, "[6]": {"target": "T6, CW6W36 (rhHLA-Cw6/ADAMTSL5) (human)", "T6 construct": "also called CW6W36.002; rHLA-Cw6/ADAMTSL5", "assay": "SPR ProteOn XPR36, captured mAb; valid kinetic fit", "procedure": "as §2"}, "A24_A*24:02 [7]": {"target": "T1, A24_A*24:02", "assay": "LABScreen beads"}, "[8]": {"target": "T7, HLA-Cw6/TRAT on K562-rhHLA-Cw6 cells loaded with TRAT peptide (human, UniProt P10321 25-366)", "T7 MHC heavy": "[…]", "T7 peptide": "TRATKMQVI", "assay": "cell-based or functional assay"}, "A24_A*24:02 [9]": {"target": "T1, A24_A*24:02", "assay": "LABScreen beads"}},
  "note": "Read-outs that look alike come from different tables or passages of the source.",
  "data": [
    {"binder": "CW6B229 (antibody, V domains shown, also called CW6B229.001; CW6M229 (DNA ID)) VH: QVQLQESGPGLVKPSETLSLTCTVSGNSIRSYYWSWIRQPAGKGLEWIGRIYISGNTNYNPSLKSRVTMSIDTSKNQFSLKLSSVTAADTAVFYCARLSGIDAFDIWGQGTMVTVSS VL: DIQMTQSPSSLSASVGDRVTITCQASQDISNYLNWYQQKPGKAPKLLIYDASNLETGVPSRFSGSGSGTDFTFTISSLQPEDFATYYCQQYDNLPITFGQGTRLEIK", "values": [
      {"measurement": "binding result", "setting": "A24_A*24:02 [1]", "result": "no binding (tested: 10 µg/ml)"},
      {"measurement": "Kd", "setting": "CW6W56.ECO.PP.001", "result": 1.23, "unit": "nM"},
      {"measurement": "koff", "setting": "CW6W56.ECO.PP.001", "result": 0.00127, "unit": "s⁻¹"},
      {"measurement": "kon", "setting": "CW6W56.ECO.PP.001", "result": "1.03e+06", "unit": "M⁻¹ s⁻¹"},
      {"measurement": "Kd", "setting": "CW6W54.001", "result": 0.673, "unit": "nM"},
      {"measurement": "koff", "setting": "CW6W54.001", "result": 0.000465, "unit": "s⁻¹"},
      {"measurement": "kon", "setting": "CW6W54.001", "result": 691000, "unit": "M⁻¹ s⁻¹"},
      {"measurement": "Kd", "setting": "CW6W55.ECO.PP.002", "result": 7.1, "unit": "nM"}
    ]},
    {"binder": "CW6B228 (antibody, V domains shown, also called CW6B228.001; CW6M228 (DNA ID)) VH: QVQLQESGPGLVKPSETLSLTCTVSGNSIRSYYWSWIRQPAGKGLEWIGRIYISGNTNYNPSLKSRVTMSIDTSKNQFSLKLSSVTAADTAVYYCARLSGIDAFDIWGQGTMVTVSS VL: DIQMTQSPSSLSASVGDRVTITCQASQDINNYLNWYQQKPGKAPKLLIYDASSLETGVPSRFSGSGSGTDFTFTISSLQPEDFATYYCQQYDDLPITFGQGTRLEIK", "values": [
      {"measurement": "binding result", "setting": "[2]", "result": "no binding"},
      {"measurement": "HLA-Cw6 Selective (K562-rhHLA-Cw6 specific/K562-rhHLA-B7 specific)", "setting": "[3]", "result": 78, "unit": "ratio"},
      {"measurement": "HLA-Cw6 Specific (K562-rhHLA-Cw6/K562 Parent binding signal)", "setting": "[3]", "result": 75, "unit": "ratio"},
      {"measurement": "HLA-B7 Specific (K562-rhHLA-B7/K562 Parent binding signal)", "setting": "[4]", "result": 1, "unit": "ratio"},
      {"measurement": "Kd", "setting": "[5]", "result": 0.04, "unit": "nM"},
      {"measurement": "koff", "setting": "[5]", "result": 0.000178, "unit": "s⁻¹"},
      {"measurement": "kon", "setting": "[5]", "result": "4.89e+06", "unit": "M⁻¹ s⁻¹"},
      {"measurement": "Kd", "setting": "CW6W32 (rhHLA-Cw6/TRAT)", "result": 0.09, "unit": "nM"},
      {"measurement": "koff", "setting": "CW6W32 (rhHLA-Cw6/TRAT)", "result": 0.000534, "unit": "s⁻¹"},
      {"measurement": "kon", "setting": "CW6W32 (rhHLA-Cw6/TRAT)", "result": "5.98e+06", "unit": "M⁻¹ s⁻¹"},
      {"measurement": "Kd", "setting": "[6]", "result": 0.05, "unit": "nM"},
      {"measurement": "koff", "setting": "[6]", "result": 0.000732, "unit": "s⁻¹"},
      {"measurement": "kon", "setting": "[6]", "result": "1.52e+07", "unit": "M⁻¹ s⁻¹"}
    ]},
    {"binder": "CW6B237 (antibody, V domains shown, also called CW6B237.001; CW6M237 (DNA ID)) VH: QVTLKESGPVLVKPTETLTLTCTVSGFSLSNARMGVSWIRQPPGKALEWLAHIFSHDEKFYSTFLKSRLTISKDTSKSQVVLMMTNMDPVDTATYYCARIILSSSGHDAFDIWGQGTMVTVSS VL: AIQMTQSPSSLSASVGDRVTITCRASQDIRHNLGWYQQKPGKAPNLLIYAASSLQSGVPSRFSGSGSGTDFILTISSLQPEDFATFFCLQDYIYPLTFGGGTKVEIK", "values": [
      {"measurement": "binding result", "setting": "A24_A*24:02 [7]", "result": "no binding (tested: 10 µg/ml)"},
      {"measurement": "IC50 (read off the curve)", "setting": "[8]", "result": "~0.3", "unit": "µg/mL"}
    ]},
    {"binder": "CW6B238 (antibody, V domains shown, also called CW6B238.001; CW6M238 (DNA ID)) VH: QVTLKESGPVLVKPTETLTLTCTVSGFSLNNARMGVSWIRQPPGKALEWLAHMFSSDEKFYRTSLKSRLTISKDTSKSQVVLTMTNMDPVDTATYYCARISLYSSGHDTFDLWGQGTMVTVSS VL: AIQMTQSPSSLSASVGDRVTITCRASQDIRNTLGWYQQKPGKAPNLLIYAASSLQSGVPSRFSGSGSGTDFTLTISSLQPEDFATYYCLQDYDYPLTFGGGTKVEIK", "values": [
      {"measurement": "binding result", "setting": "A24_A*24:02 [9]", "result": "no binding (tested: 10 µg/ml)"}
    ]}
  ]
}
